Reference: patent publication US20100316632A1

Tests used:
[1] = target: CD40 receptor (human), on CD14+ monocytes (human) (UniProt P25942)
[2] = target: CD40 receptor (human), on CD14+ monocytes (human) (UniProt P25942); remark: listed apart in the source

Substance: clone 64 (agonist anti-human CD40 monoclonal antibody, PanGenetics, The Netherlands)
- IL-1β production by purified CD14+ cells of MDS patients (ELISA) [1]: 18 pg/mL
- IL-6 production by purified CD14+ cells of MDS patients (ELISA) [1]: 1210 pg/mL
- IL-10 production by purified CD14+ cells of MDS patients (ELISA) [1]: 1650 pg/mL
- TNF-α production by CD14+ monocytes (ELISA of supernatant after 24 h) [2]: 449 pg/mL
